US20020032314A1
Ends that are not written are not given here. * marks the point of attachment. 125I = [125I]*

Biological target: NTP receptor on human neutrophils (human)
Experiment: saturation curve and Scatchard-like analysis of 125I-NTP-Y binding to human neutrophils

NTP receptors per cell (receptors per cell): 3000
B1: 125I-labeled NTP-Y (human Neutrophil Targeting Peptide synthesized with an N-terminal tyrosine) (peptide)
peptide: Y(125I)RRPESKATNATLDPR
